Where no end group is shown, it is not given here.
Legend:
human IAPP (hIAPP) [1] = biological target: T1, human IAPP (hIAPP) (Homo sapiens, UniProt P10997); assay: Thioflavin T binding assay of hIAPP aggregation when mixed with IAPP peptides; format: biochemical; settings: for inhibition of hIAPP aggregation, thioflavin T binding: hIAPP mixed with peptide, incubated at 37° C. with shaking; for inhibition of hIAPP aggregation (summary statement): peptide mixed with hIAPP, no single assay (thioflavin T and AFM)
T1 construct: This 37 amino acid polypeptide is co-secreted from pancreatic β-islet cells with insulin
T1 sequence (P10997 34-70 limits assumed): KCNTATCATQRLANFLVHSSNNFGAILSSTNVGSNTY
Description: Any of a number of assays known to the art can be used to evaluate the ability of IAPP peptides to inhibit hIAPP aggregation and/or protect cells from hIAPP toxicity. Thioflavin T (ThT) binding is one such technique for identifying amyloid formation in real time. Human IAPP is known to bind thioflavin T during aggregation and amyloid formation, and upon binding to amyloid fibrils ThT will give a strong fluorescence signal at approximately 482 nm when excited at 450 nm. ThT fluorescence correlates linearly with amyloid concentration in a sample and therefore can be used to determine the amount of aggregation in a sample. This technique can therefore be used for identifying substances with amyloid-inhibiting potential when such substances are mixed with human IAPP under conditions known to result in the formation of aggregates by hIAPP. Determining the extent of aggregation can also be determined using other techniques, such as Atomic Force Microscopy (AFM), which can provide information about particle dimensions, shape, and substructure with nanometer resolution. In the foregoing assays and others that can be used by one of skill in the art, significant inhibition can be determined using a t-test by measuring the difference between hIAPP and hIAPP combined with an IAPP peptide.
To identify IAPP peptides having inhibitory potential against hIAPP aggregation, the peptides shown in FIG. 1 from a number of species (cow, degu, guinea pig, horse, pig, rat, and sheep[…]) were mixed with hIAPP at a 2:1 molar ratio of animal peptide to hIAPP and incubated under conditions known to promote hIAPP aggregation and fibril formation. IAPP alone, or hIAPP mixed with an animal IAPP, was pipetted into a glass tube and the HFIP was removed under speed-vacuum. The resulting peptide sample was dissolved in 20 mM Tris buffer pH 7.4.
37 μM human IAPP was mixed with 75 μM of each indicated animal IAPP. Aggregation was initiated by incubating samples at 37° C. with shaking at 200 rpm for 40 minutes. At indicated time points, a 17 μL aliquot of each sample was mixed with 663 μL of 50.0 μM thioflavin T in 20 mM Tris buffer (pH 7.4). Thioflavin T fluorescence emission was then recorded at 488 nm using a Hitachi F-7000 fluorescence spectrophotometer.
After 40 minutes, these samples were monitored for their ability to bind thioflavin T (see FIG. 2) and their ability to form fibrils as identified with atomic force microscopy.
Human IAPP (37 μM) was mixed with each of the indicated Weddell seal variants (at 75 μM) and incubated for 30 minutes at 37° C. with shaking at 200 rpm. The Weddell seal IAPP peptides were likewise subjected to atomic force microscopy as described in Example 2.
Human IAPP was mixed with each of the indicated raccoon variants and incubated at 37° C. with shaking.
Human IAPP was mixed with each of the indicated chicken variants and incubated at 37° C. with shaking. […] However, it was able to protect cells in MTT assays, so it is believed to inhibit formation of toxic oligomers while having a lesser effect on inhibiting the formation of fibers (which are less toxic and less able to bind ThT).
Human IAPP was mixed with each of the indicated chicken variants and incubated at 37° C. with shaking.

human IAPP (hIAPP) [2] = biological target: T1, human IAPP (hIAPP); assay: Atomic force microscopy (AFM) of hIAPP fibril formation when mixed with IAPP peptides; format: biochemical; settings: 37 μM hIAPP and 75 μM peptide, 37° C. with shaking for 40 minutes
Protocol: Samples labeled with hIAPP contained 40 μM hIAPP. The sample with pramlintide and hIAPP contained a 2:1 molar mixture (80 μM Pramlintide mixed with 40 μM hIAPP). The samples with raccoon IAPP and Pramlintide alone contained 40 μM of the indicated peptides. Each sample was incubated for 40 minutes at 37° C. with shaking; conditions known to promote hIAPP amyloid formation. All scans show raw data with no flattening and are […].
Each sample contained 37 μM hIAPP and 75 μM of the indicated peptide. Samples were incubated at 37° C. with shaking for 40 minutes. All scans show raw data with no flattening and are […].
Each sample contained 37 μM hIAPP mixed with 37 μM of the indicated peptide. Samples were incubated at 37° C. with shaking for 30 minutes before depositing each sample onto freshly cleaved mica.
Samples of hIAPP with or without animal IAPP were prepared as described in Example 1 and were then incubated with shaking at 37° C. for 40 minutes. After this incubation, 17 μL of each sample was deposited onto freshly cleaved mica. Samples were incubated for 5 minutes at room temperature before washing with 200 μL sterile water. After drying, the samples were scanned using an MFP-3D atomic force microscope (Asylum Research) set on A/C mode and a 240 m silicon cantilever (Olympus).
Many of the animal IAPP variants are known to likewise form fibrils and yield amyloid-plaques when scanned via AFM. […] This is in spite of the fact that all of these IAPP peptides (except polar bear IAPP) are known to aggregate and form fibrils themselves under these or similar conditions

RIN-m cells = assay: MTT viability assay, peptide alone or mixed with hIAPP; format: cell-based; settings: hIAPP mixed with peptide 1:1, MTT assay
Description: Cytoprotection can likewise be measured by a number of assays known to the art. One such assay is the MTT assay, which is a colorimetric assay for assessing cell metabolic activity. NAD(P)H-dependent cellular oxidoreductase enzymes in the cytosolic compartment of a cell reduces the tetrazolium dye MTT 3-(4,5-dimethylthiazol-2-yl)-2,5-diphenyltetrazolium bromide to an insoluble form, formazan, which has a purple color. The reduction of MTT (and other tetrazolium dyes) depends on the cellular metabolic activity, so a loss of color in the course of performing an MTT assay indicates low metabolic activity, and is thus an indicator of cell damage and death.
To test cell viability, a MTT colorimetric assay measuring the conversion of yellow tetrazolium salt into purple formazan crystal catalyzed by a mitochondrial reductase was used. Cell viability studies were performed using RIN-m cells (ATCC, CRL-2057). An equal number of RIN-m cells were plated in triplicate and incubated overnight in 96-well plates. The next day, fresh RPMI-1640 with phenol red supplemented with 10% FBS was added to cells. Hexafluoroisopropanol (HFIP) was removed from each individual human and animal IAPP using a centrivap concentrator (LabOnco). All IAPP peptide samples were re-suspended in RPMI-1640 with 10% FBS. To ensure even re-suspension, each resulting IAPP-containing vial was scraped with a pipette tip six times and vortexed (Vortex Genie Mixer) for 15 seconds. The whole process, from drying each IAPP peptide to adding each IAPP peptide to the cells was uniform to ensure that each sample was incubated for an equal amount of time with each IAPP peptide. IAPP peptides were added to cells and incubated for 46 hours at 37° C. Post-incubation, the media in each well was replaced by fresh DMEM/F-12 without phenol red. MTT (3-(4,5-dimethyl-2-thiazolyl)-2,5-diphenyl-tetrazolium bromide) was added into each well and incubated at 37° C. for 2 hours. Formazan crystals, formed on the bottom of the wells, were re-suspended in solubilization buffer (20% SDS and 50% dimethylformamide). The absorbance in each well was taken at 570 nm using a Multiskan FC Microplate Photometer (Thermos Fisher Scientific). Media were obtained from ATCC. All incubations took place in a water jacketed incubator in 5% carbon dioxide at 37° C. (Shell Lab).
The MTT viability assay was used to measure cell viability of RIN-m cells upon addition of hIAPP alone, the addition of each animal IAPP peptide alone, and hIAPP mixed with each animal IAPP peptide (results shown in FIG. 5). RIN-m cells alone were used as a control and set to 100% cell viability. […] Addition of raccoon IAPP to hIAPP increased the cell viability from 55% to an average of 72% (p=0.005705). Addition of chicken IAPP variant to hIAPP increased cell viability to an average of 76% (p=0.013556).

| inhibition of hIAPP aggregation, thioflavin T binding (human IAPP (hIAPP) [1]) | inhibition of hIAPP fibril formation, AFM (human IAPP (hIAPP) [2]) | Substance | inhibition of hIAPP aggregation (summary statement) (human IAPP (hIAPP) [1]) | rescue / protection of cells from hIAPP toxicity (words) (RIN-m cells) |
| --- | --- | --- | --- | --- |
| inhibited hIAPP aggregation | – | KCNTATCATQRLANFLLRSSNNLGAILSPTNVGSNTY (Procyon lotor mutation) [Rac_V8A] | – | – |
| – | did not inhibit hIAPP aggregation | R8-30: truncated raccoon IAPP peptide of FIG. 19; sequence not printed in the text (VTQRLANFLLRSSNNLGAILSPT) | – | – |
| – | – | SEQ ID NO:21: raccoon IAPP peptide with amino acids removed from the N-terminal end (FLLRSSNNLGAILSPTNVGSNTY; Procyon lotor truncation) | failed to inhibit aggregation of hIAPP or reduce its cytotoxicity | failed to inhibit aggregation of hIAPP or reduce its cytotoxicity |
| – | – | SEQ ID NO:24: raccoon IAPP peptide with amino acids removed from the middle (VTQRLANFLLRSSNNLGAILSPT; Procyon lotor truncation) | failed to inhibit aggregation of hIAPP or reduce its cytotoxicity | failed to inhibit aggregation of hIAPP or reduce its cytotoxicity |
| – | did not inhibit hIAPP aggregation | R1-23: truncated raccoon IAPP peptide of FIG. 19; sequence not printed in the text (KCNTATCVTQRLANFLLRSSNNL) | – | – |
| inhibited hIAPP aggregation | – | KCNTATCVTQRLADFLVRSSSNIGAILSPTNVGSNTY (Gallus gallus mutation) [Ch_Y26L] | – | rescued cells from hIAPP-induced cytotoxicity |
| inhibited hIAPP aggregation | – | KCNTATCVTQRLANFLLRSSNNLGAILSPT (ends and bridges not checked; cysteine pairing not given here) [R1-30] | – | rescued cells from hIAPP-induced cytotoxicity |
| inhibited hIAPP aggregation | – | KCNTATCVTQRLADFLLRSSNNLGAILSPTNVGSNTY (Procyon lotor mutation) [Rac_N13D] | – | – |
| inhibited hIAPP aggregation | – | KCNTATCVTQRLANFLVRSSNNLGAILSPTNVGSNTY (Procyon lotor mutation) [Rac_L16V] | – | – |
| – | – | KCNTATCATQRLANFLVRSSNNFGAILSPTNVGSNTY (KTATCATQRLANFLVHSSNNLGAILSPTNVGSNTY; Leptonychotes weddellii mutation) [WS_RP] | – | rescued cells from hIAPP toxicity |
| – | – | SEQ ID NO:25: raccoon IAPP peptide with amino acids removed from the middle (VTQRLANFLLRSSNNL; Procyon lotor truncation) | failed to inhibit aggregation of hIAPP or reduce its cytotoxicity | failed to inhibit aggregation of hIAPP or reduce its cytotoxicity |
| inhibited hIAPP aggregation | – | KCNTATCVTQRLANFLLRSSNNIGAILSPTNVGSNTY (Procyon lotor mutation) [Rac_L22I] | – | – |
| – | did not inhibit hIAPP aggregation | R8-23: truncated raccoon IAPP peptide of FIG. 19; sequence not printed in the text (VTQRLANFLLRSSNNL) | – | – |
| – | – | SEQ ID NO:23: raccoon IAPP peptide with amino acids removed from the N-terminal end (ATQRLANFLLRSSNNLGAILSPTNVGSNTY; Procyon lotor truncation) | failed to inhibit aggregation of hIAPP or reduce its cytotoxicity | failed to inhibit aggregation of hIAPP or reduce its cytotoxicity |
| – | – | SEQ ID NO:22: raccoon IAPP peptide with amino acids removed from the middle (FLLRSSNNLGAILSPTN; Procyon lotor truncation) | failed to inhibit aggregation of hIAPP or reduce its cytotoxicity | failed to inhibit aggregation of hIAPP or reduce its cytotoxicity |
| inhibited hIAPP aggregation | – | KCNTATCVTQRLADFLLRSSSNIGAIYSPTNVGSNTY (Gallus gallus mutation) [Ch_V16L] | – | rescued cells from hIAPP-induced cytotoxicity |

| Substance | inhibition of hIAPP aggregation, thioflavin T binding (human IAPP (hIAPP) [1]) | inhibition of hIAPP fibril formation, AFM (human IAPP (hIAPP) [2]) | inhibition of hIAPP aggregation (summary statement) (human IAPP (hIAPP) [1]) | rescue / protection of cells from hIAPP toxicity (words) (RIN-m cells) |
| --- | --- | --- | --- | --- |
| cow IAPP: naturally occurring IAPP peptide of cow origin (FIG. 1) (CGTATCETQRLANFLAPSSNKLGAIFSPTKMGSNTY; ends and bridges not checked; cysteine pairing not given here) | – | either had no effect on hIAPP fibril formation or appeared to promote fibrils with hIAPP | failed to inhibit the aggregation of human IAPP | – |

Source: US12522635B2, “Amyloid peptide variants” (Loyola Marymount University, priority 2019, dated 2026)
